In paper PMC4980809 (2016):

Molecular target: F-actin (skeletal muscle actin) (Oryctolagus cuniculus, UniProt P68135)
Assay: actin co-sedimentation assay

Kd: 7.5 µM
B1: Alpha-actinin-2 19-266 (protein)
chain: YMIQEEEWDRDLLLDPAWEKQQRKTFTAWCNSHLRKAGTQIENIEEDFRNGLKLMLLLEVISGERLPKPDRGKMRFHKIANVNKALDYIASKGVKLVSIGAEEIVDGNVKMTLGMIWTIILRFAIQDISVEETSAKEGLLLWCQRKTAPYRNVNIQNFHTSWKDGLGLCALIHRHRPDLIDYSKLNKDDPIGNINLAMEIAEKHLDIPKMLDAEDIVNTPKPDERAIMTYVSCFYHAFAGAEQAETAA
